According to patent US9850292B2, “Compositions which regulate the epithelial brush border Na+/H+ exchanger NHE3 and their methods of use in gastrointestinal disease” (THE JOHNS HOPKINS UNIVERSITY, priority 2012, dated 2017):
Where two headings read alike, the source gives them in different places. The star is where a group is joined. Biotin = O=C1N[C@H]2[C@H](CS[C@H]2CCCCC(=O)*)N1

Tests used:
[1] = tested on: murine jejunum exposed to cholera toxin; details: mouse, in vivo
[2] = molecular target: T1, rabbit NHE3 (rNHE3) (Oryctolagus cuniculus, UniProt P26432); type: cell-based; parameters: amplified from pcDNA 3.1 containing the full-length NHE3V (pcDNA 3.1/NHE3V); expressed in transfected cells
T1 sequence (P26432 30-832): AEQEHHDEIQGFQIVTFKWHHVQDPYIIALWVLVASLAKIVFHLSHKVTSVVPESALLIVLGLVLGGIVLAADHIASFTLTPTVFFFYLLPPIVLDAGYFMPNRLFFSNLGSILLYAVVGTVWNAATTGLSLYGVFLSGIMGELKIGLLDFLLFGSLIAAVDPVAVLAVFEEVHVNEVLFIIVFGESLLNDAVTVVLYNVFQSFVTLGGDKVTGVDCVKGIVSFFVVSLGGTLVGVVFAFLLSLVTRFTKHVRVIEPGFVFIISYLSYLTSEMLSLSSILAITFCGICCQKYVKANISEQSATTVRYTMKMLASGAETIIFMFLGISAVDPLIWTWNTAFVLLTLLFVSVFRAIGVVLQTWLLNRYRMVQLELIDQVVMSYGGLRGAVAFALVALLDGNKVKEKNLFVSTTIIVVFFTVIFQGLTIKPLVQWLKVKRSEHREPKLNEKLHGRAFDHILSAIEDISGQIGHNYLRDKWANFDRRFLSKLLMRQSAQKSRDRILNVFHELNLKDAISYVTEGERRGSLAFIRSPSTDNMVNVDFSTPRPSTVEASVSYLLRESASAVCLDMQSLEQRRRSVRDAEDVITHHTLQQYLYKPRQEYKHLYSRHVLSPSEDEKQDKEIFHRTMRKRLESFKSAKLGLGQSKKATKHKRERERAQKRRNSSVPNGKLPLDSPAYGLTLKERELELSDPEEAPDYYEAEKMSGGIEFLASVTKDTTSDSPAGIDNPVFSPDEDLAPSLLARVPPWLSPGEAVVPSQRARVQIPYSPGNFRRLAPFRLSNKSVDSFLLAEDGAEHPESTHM

[3] = molecular target: T2, NHE3 (Mus musculus, UniProt G3X939); test: NHE3 activity in mouse jejunum in vitro, BCECF/microscopy; type: cell-based; details: FIG. 4B
T2 construct: from tissue; host or cells: mouse jejunum, exposed in vitro
T2 sequence (G3X939 27-829): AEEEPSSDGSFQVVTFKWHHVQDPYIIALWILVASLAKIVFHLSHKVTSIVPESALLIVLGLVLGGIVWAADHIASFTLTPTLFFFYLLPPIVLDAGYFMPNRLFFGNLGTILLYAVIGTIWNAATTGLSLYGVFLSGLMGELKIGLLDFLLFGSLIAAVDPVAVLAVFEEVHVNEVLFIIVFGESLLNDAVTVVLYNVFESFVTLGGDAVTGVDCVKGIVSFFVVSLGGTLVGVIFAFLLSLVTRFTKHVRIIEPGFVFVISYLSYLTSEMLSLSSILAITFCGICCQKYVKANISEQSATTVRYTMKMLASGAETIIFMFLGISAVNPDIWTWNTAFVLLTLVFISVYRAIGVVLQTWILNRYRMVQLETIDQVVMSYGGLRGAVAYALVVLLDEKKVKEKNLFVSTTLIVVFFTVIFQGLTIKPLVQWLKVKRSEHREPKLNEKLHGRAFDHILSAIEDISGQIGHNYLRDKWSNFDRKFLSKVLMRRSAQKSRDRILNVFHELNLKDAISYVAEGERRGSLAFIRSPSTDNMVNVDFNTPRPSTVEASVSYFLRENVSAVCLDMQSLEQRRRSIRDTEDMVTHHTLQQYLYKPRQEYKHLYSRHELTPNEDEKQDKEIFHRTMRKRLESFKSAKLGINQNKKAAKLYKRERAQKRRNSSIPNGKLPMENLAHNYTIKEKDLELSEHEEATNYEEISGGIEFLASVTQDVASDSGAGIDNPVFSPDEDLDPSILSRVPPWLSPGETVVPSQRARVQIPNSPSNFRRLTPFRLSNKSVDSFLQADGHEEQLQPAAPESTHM
Experimental: (§1) FIG. 4A is a bar graph depicting the results when Caco-2/HA-NHE3 cells were exposed to IRCX-CP (400 nM) for 15 minutes then basal, carbachol (cch) (10 μM) inhibited and EGF (200 ng/ml) stimulated NHE3 were determined (n=4). FIG. 4B is another bar graph depicting the effects when mouse jejunum was exposed in vitro to IRCX-CP (400 nM) and/or forskolin (10 μM) for 15 minutes with NHE3 activity determined by BCECF.
The fluorescent peptides described above were then loaded into PS120/NHERF2/NHE3, Caco2/NHE3 cells, and mouse small intestine. It was established that loading reaches a maximum in 15 minutes (37° C.) (FIG. 3) and is stable for at least 6 hours. To evaluate the effect of these peptides on NHE3 regulation, PS120 and Caco-2 cells were exposed to 400-1600 nM Bodipy 577/618-peptide and used BCECF/fluorometry to characterize the peptide's effects on basal NHE3 activity and after Ca^2+ elevation and EGF exposure. In studies in both cell types, all peptide concentrations studied stimulated basal NHE3 activity by about 40%, and reduced Ca^2+ inhibition of NHE3 by about 50% in PS 120 cells (data not shown) and entirely in Caco-2 cells (FIG. 4A).

[4] = molecular target: T1, rabbit NHE3 (rNHE3); test: BCECF/fluorometry Na+/H+ exchange activity in Caco-2 cells; type: cell-based; parameters: expressed in transfected cells; host or cells: Caco-2BBe cells, transient adenoviral infection (ADLOX.HTM shuttle vector, CMV promoter)
Experimental: as §1
Cell Lines. PS120 fibroblasts lack all endogenous plasma membrane NHEs, NHERF1 (minimal expression), NHERF2, NHERF3 and NHERF4. These cells, when stably expressing rabbit NHE3 with a C-terminal VSV-G protein epitope tag and NHERF2, are called PS120/NHE3/NHERF2 cells (or PS120/E3V/NHERF2 cells), as described (stable cell lines made using pcDNA 3.1, G418 and hygromycin, Invitrogen). Caco-2BBe cells express all four members of the NHERF gene family and small amounts NHE3 (Caco-2BBe/3HA-NHE3 cells). Triple HA-tagged rabbit NHE3 was expressed by adenovirus into Caco-2BBe cells for transport and biochemical analysis.
Adenoviral Constructs/Infection. Caco-2BBe cells which endogenously express the four members of the NHERF gene family and small amounts of NHE3 were transiently infected with triple HA-tagged rNHE3 previously engineered into replication-deficient Adeno-viral shuttle vector ADLOX.HTM under a cytomegalovirus promoter. Caco-2BBe cells were first grown on Transwell filters (Corning) until 12 days post-confluence in “Caco-2 medium.” Cells were then treated with serum-free media containing 6 mM EGTA for 2 hours at 37° C. to allow the tight junctions to open, further exposing apical and basolateral surfaces to the virus. […]
Measurement of Na^+/H^+ Exchange. Cellular Na^+/H^+ exchange activity in PS 120 cells grown to about 70% confluency on glass coverslips was determined fluorometrically using the intracellular pH-sensitive dye 2′,7′-bis(carboxyethyl)5-6-carboxyfluoresceinacetoxymethyl ester (BCECF-AM, 5μM; Molecular Probes, Eugene, Oreg.). […] At the end of each experiment, the fluorescence ratio was calibrated to pHi using the high potassium/nigericin method. Na^+/H^+ exchange activity data were calculated as the product of Na^+ dependent changes in pHi times the buffering capacity at each pHi, and individual points shown in the figures are ratios of Na^+/H^+ exchange calculated at multiple pHi values using at least three coverslips per condition in a single experiment. Kinetics of Na^+/H^+ exchange were analyzed by Hill plot using Origin (Microcal Software) to estimate Vmax and K′(H^+)i in individual experiments. Means+/−S.E.M. were determined from at least three separate experiments. […]

Bodipy 577/618-peptide: 38 aa rabbit NHE3 aa 568-605 peptide (SEQ ID NO: 1), biotin on N-terminus, C-terminus linked to Bodipy 577/618 maleimide (Biotin-NVDFSTPRPSTVEASVSYLLRESASAVCLDMQSLEQRR-{Bodipy 577/618 maleimide}; listed as Oryctolagus cuniculus)
cholera toxin fluid accumulation [1]: prevented cholera toxin fluid accumulation | peptide concentration at which effects were maximum [2]: 400 nM | reduction of Ca2+ inhibition of NHE3 [2]: about 50% | stimulation of basal NHE3 activity [2]: about 40% | stimulation of basal NHE3 activity ([3]; 400 nM, 15 minutes): 60% | prevention of NHE3 inhibition by forskolin ([3]; forskolin 10 μM, 400 nM peptide): totally prevented | stimulation of basal NHE3 activity ([4]; 400-1600 nM peptide, all concentrations studied): about 40% | reduction of Ca2+ inhibition of NHE3 ([4]; after Ca2+ elevation (carbachol 10 μM), FIG. 4A): entirely | peptide concentration at which effects were maximum ([4]; effect at saturation): 400 nM

NVDFSTPRPSTVEASVSYLLRESASAVCLDMQSLEQRR (listed as Oryctolagus cuniculus) [peptide without Bodipy]
effect on NHE3 activity [2]: did not alter NHE3 activity | effect on NHE3 activity [4]: did not alter NHE3 activity
